Measurements from PMC3134462 (2011).
Where no end group is shown, it is not given here. [ ]: non-standard residue; d: D form. pY = N[C@@H](Cc1ccc(OP(=O)(O)O)cc1)C(=O)O

Columns and labels:
DLC-1 peptide (pY442) = molecular target: T1, DLC-1 peptide (pY442) (Homo sapiens); assay: SPR
T1 chain: CSRLSI[pY]DNVPG

[1] = molecular target: T2, DLC-1 peptide (nonphosphorylated) (Homo sapiens); assay: SPR
T2 chain: CSRLSIYDNVPG

B1: Tensin2 SH2 domain 1135-1248 (protein)
chain: DTSKFWYKPHLSRDQAIALLKDKDPGAFLIRDSHSFQGAYGLALKVATPPPSAQPWKGDPVEQLVRHFLIETGPKGVKIKGCPSEPYFGSLSALVSQHSISPISLPCCLRIPSK
Kd (DLC-1 peptide (pY442)): ~31 nM
Kd [1]: ~248 nM
